According to the supplement of paper PMC10567573:

B1: MNAT1 (parent)
chain: SLREYNDFLEEVEEIVFNLTNNVD

Variants of: B1
Experiment: protein stability index of a GFP-peptide fusion (GPS, HEK-293T) (PSI 1-6); higher = more stable
Details: c terminus: a fixed tail appended
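Further: lentivirally expressed fusions sorted by FACS into six bins by GFP to DsRed ratio, PSI derived from sequencing read proportions per bin multiplied by bin number.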

Row | Variant | protein stability index
1 | SLREYNDFLEEVEEIVFNLNNNVD | 2.56
2 | SLREYNDFLEEVEEIVFNLMNNVD | 1.86
3 | SLREYNDFLEEVEEIVFNLTNNYD | 1.8
4 | SLREYNDFLEEVEEIVFNLTNNHD | 2.38
5 | SLREYNDFLEEVEEIVFNLTNNAD | 2.69
6 | SLREYNDFLEEVEEIVFNLTNNFD | 2.71
7 | SLREYNDFLEEVEEIVFNLTNNRD | 2.18
8 | SLREYNDFLEEVEEIVFNLTNNTD | 2.5
9 | SLREYNDFLEEVEEIVFNLTNNPD | 3.05
10 | SLREYNDFLEEVEEIVFNLTNNGD | 2.73
11 | SLREYNDFLEEVEEIVFNLTNNND | 2.35
12 | SLREYNDFLEEVEEIVFNLTNNLD | 1.64
13 | SLREYNDFLEEVEEIVFNLTNNQD | 2.21
14 | SLREYNDFLEEVEEIVFNLTNNID | 1.98
15 | SLREYNDFLEEVEEIVFNLTNNDD | 2.92
16 | SLREYNDFLEEVEEIVFNLTNNSD | 3.05
17 | SLREYNDFLEEVEEIVFNLTNNED | 2.82
18 | SLREYNDFLEEVEEIVFNLTNNKD | 2.08
19 | SLREYNDFLEEVEEIVFNLTNNMD | 1.44
20 | SLREYNDFLEEVEEIVFNLTNNWD | 1.57
21 | SLREYNDFLEEVEEIVFNLTNNCD | 2.47
22 | SLREYNDFLEEVEEIVFNKTNNVD | 4.26
23 | SLREYNDFLEEVEEIVFNQTNNVD | 4.07
24 | SLREYNDFLEEVEEIVFNWTNNVD | 1.63

Row | Variant | protein stability index
25 | SLREYNDFLEEVEEIVFNCTNNVD | 3.34
26 | SLREYNDFLEEVEEIVFNFTNNVD | 2.24
27 | SLREYNDFLEEVEEIVFNVTNNVD | 2.97
28 | SLREYNDFLEEVEEIVFNHTNNVD | 4.43
29 | SLREYNDFLEEVEEIVFNPTNNVD | 4.05
30 | SLREYNDFLEEVEEIVFNGTNNVD | 4.19
31 | SLREYNDFLEEVEEIVFNATNNVD | 3.2
32 | SLREYNDFLEEVEEIVFNDTNNVD | 4.43
33 | SLREYNDFLEEVEEIVFNMTNNVD | 2.89
34 | SLREYNDFLEEVEEIVFNRTNNVD | 3.34
35 | SLREYNDFLEEVEEIVFNYTNNVD | 3.06
36 | SLREYNDFLEEVEEIVFNSTNNVD | 4.18
37 | SLREYNDFLEEVEEIVFNTTNNVD | 3.6
38 | SLREYNDFLEEVEEIVFNNTNNVD | 3.76
39 | SLREYNDFLEEVEEIVFNITNNVD | 1.84
40 | SLREYNDFLEEVEEIVFNETNNVD | 4.55
41 | SLREYNDFLEEVEEIVRNLTNNVD | 2.2
42 | SLREYNDFLEEVEEIVSNLTNNVD | 3.11
43 | SLREYNDFLEEVEEIVCNLTNNVD | 2.88
44 | SLREYNDFLEEVEEIVNNLTNNVD | 2.16
45 | SLREYNDFLEEVEEIVHNLTNNVD | 3.15
46 | SLREYNDFLEEVEEIVENLTNNVD | 3.34
47 | SLREYNDFLEEVEEIVANLTNNVD | 2.46
48 | SLREYNDFLEEVEEIVVNLTNNVD | 2.82

Row | Variant | protein stability index
49 | SLREYNDFLEEVEEIVQNLTNNVD | 2.78
50 | SLREYNDFLEEVEEIVTNLTNNVD | 3.16
51 | SLREYNDFLEEVEEIVYNLTNNVD | 1.91
52 | SLREYNDFLEEVEEIVPNLTNNVD | 4
53 | SLREYNDFLEEVEEIVKNLTNNVD | 2.38
54 | SLREYNDFLEEVEEIVMNLTNNVD | 2.57
55 | SLREYNDFLEEVEEIVDNLTNNVD | 3.2
56 | SLREYNDFLEEVEEIVLNLTNNVD | 2.19
57 | SLREYNDFLEEVEEIVGNLTNNVD | 3.4
58 | SLREYNDFLEEVEEIVWNLTNNVD | 1.95
59 | SLREYNDFLEEVEEIVFNLTNWVD | 2.97
60 | SLREYNDFLEEVEEIVFNLTNVVD | 1.9
61 | SLREYNDFLEEVEEIVFNLTNLVD | 1.16
62 | SLREYNDFLEEVEEIVFNLTNYVD | 1.38
63 | SLREYNDFLEEVEEIVFNLTNRVD | 2.09
64 | SLREYNDFLEEVEEIVFNLTNTVD | 2.06
65 | SLREYNDFLEEVEEIVFNLTNEVD | 2.38
66 | SLREYNDFLEEVEEIVFNLTNSVD | 1.78
67 | SLREYNDFLEEVEEIVFNLTNMVD | 1.44
68 | SLREYNDFLEEVEEIVFNLTNHVD | 2.15
69 | SLREYNDFLEEVEEIVFNLTNQVD | 1.84
70 | SLREYNDFLEEVEEIVFNLTNAVD | 2.69
71 | SLREYNDFLEEVEEIVFNLTNGVD | 2.96
72 | SLREYNDFLEEVEEIVFNLTNCVD | 1.66

Row | Variant | protein stability index
73 | SLREYNDFLEEVEEIVFNLTNIVD | 2.25
74 | SLREYNDFLEEVEEIVFNLTNFVD | 2.47
75 | SLREYNDFLEEVEEIVFNLTNKVD | 2.64
76 | SLREYNDFLEEVEEIVFNLTNPVD | 2.25
77 | SLREYNDFLEEVEEIVFNLTNDVD | 1.98
78 | SLREYNDFLEEVEEIVFELTNNVD | 2.16
79 | SLREYNDFLEEVEEIVFDLTNNVD | 2.36
80 | SLREYNDFLEEVEEIVFWLTNNVD | 2.52
81 | SLREYNDFLEEVEEIVFCLTNNVD | 1.71
82 | SLREYNDFLEEVEEIVFSLTNNVD | 2.16
83 | SLREYNDFLEEVEEIVFGLTNNVD | 2.38
84 | SLREYNDFLEEVEEIVFKLTNNVD | 2.01
85 | SLREYNDFLEEVEEIVFHLTNNVD | 1.85
86 | SLREYNDFLEEVEEIVFMLTNNVD | 1.84
87 | SLREYNDFLEEVEEIVFYLTNNVD | 1.4
88 | SLREYNDFLEEVEEIVFTLTNNVD | 2.55
89 | SLREYNDFLEEVEEIVFALTNNVD | 1.84
90 | SLREYNDFLEEVEEIVFRLTNNVD | 1.6
91 | SLREYNDFLEEVEEIVFVLTNNVD | 2.32
92 | SLREYNDFLEEVEEIVFQLTNNVD | 1.73
93 | SLREYNDFLEEVEEIVFPLTNNVD | 2.71
94 | SLREYNDFLEEVEEIVFFLTNNVD | 2.22
